± gives the uncertainty stated by the source.
Assay: abundance fitness (aPCA) (normalised: wild type 0, dead -1); higher = more abundant; growth selection in yeast, the domain comes from the species named
Settings: Homo sapiens

Q: Which abundance fitness does the source give for “BAG family molecular chaperone regulator 3 F38W, O95817” here?
A: -0.665 ± 0.25

Q: Which abundance fitness does the source give for “SAFB-like transcription modulator N65M, Q9NWH9” here?
A: -0.135 ± 0.055

Q: For “BAG family molecular chaperone regulator 3 P23A, O95817”, which abundance fitness is on record?
A: -0.378 ± 0.16

Q: Which abundance fitness does the source give for “BAG family molecular chaperone regulator 3 P52W, O95817” here?
A: -0.837 ± 0.22

Q: For “BAG family molecular chaperone regulator 3 H42L, O95817”, which abundance fitness is on record?
A: -0.641 ± 0.18

Q: For “BAG family molecular chaperone regulator 3 V40K, O95817”, which abundance fitness is on record?
A: -0.64 ± 0.098

Q: Which abundance fitness does the source give for “BAG family molecular chaperone regulator 3 R45H, O95817” here?
A: 0.367 ± 0.25

Q: With “BAG family molecular chaperone regulator 3 G35A, O95817” as the substance, how does the abundance fitness read?
A: 0.335 ± 0.063

Q: With “BAG family molecular chaperone regulator 3 R19I, O95817” as the substance, how does the abundance fitness read?
A: 0.367 ± 0.17

Q: With “SAFB-like transcription modulator D24P, Q9NWH9” as the substance, how does the abundance fitness read?
A: -0.598 ± 0.033

Q: Which abundance fitness does the source give for “BAG family molecular chaperone regulator 3 T47E, O95817” here?
A: -0.573 ± 0.15

Q: For “BAG family molecular chaperone regulator 3 G25A, O95817”, which abundance fitness is on record?
A: -0.712 ± 0.17

Q: With “BAG family molecular chaperone regulator 3 E57H, O95817” as the substance, how does the abundance fitness read?
A: -0.326 ± 0.38

Q: For “BAG family molecular chaperone regulator 3 E57S, O95817”, which abundance fitness is on record?
A: -0.001 ± 0.11

Q: With “BAG family molecular chaperone regulator 3 D20N, O95817” as the substance, how does the abundance fitness read?
A: 0.044 ± 0.13

Q: Which abundance fitness does the source give for “SAFB-like transcription modulator L39G, Q9NWH9” here?
A: -0.475 ± 0.045

Q: Which abundance fitness does the source give for “BAG family molecular chaperone regulator 3 F38A, O95817” here?
A: -0.181 ± 0.15

Q: Which abundance fitness does the source give for “SAFB-like transcription modulator K45C, Q9NWH9” here?
A: -0.617 ± 0.052

Q: For “BAG family molecular chaperone regulator 3 N50I, O95817”, which abundance fitness is on record?
A: 0.656 ± 0.23

Q: For “BAG family molecular chaperone regulator 3 W49L, O95817”, which abundance fitness is on record?
A: -0.588 ± 0.081

Q: For “SAFB-like transcription modulator Q54T, Q9NWH9”, which abundance fitness is on record?
A: 0.146 ± 0.09

Q: Which abundance fitness does the source give for “BAG family molecular chaperone regulator 3 T46V, O95817” here?
A: -0.531 ± 0.14

Q: Which abundance fitness does the source give for “SAFB-like transcription modulator T46K, Q9NWH9” here?
A: 0.074 ± 0.09

Q: Which abundance fitness does the source give for “SAFB-like transcription modulator T42W, Q9NWH9” here?
A: -0.315 ± 0.095

Q: For “BAG family molecular chaperone regulator 3 R45W, O95817”, which abundance fitness is on record?
A: -0.843 ± 0.18

Q: With “SAFB-like transcription modulator I41E, Q9NWH9” as the substance, how does the abundance fitness read?
A: -0.139 ± 0.083

Q: Which abundance fitness does the source give for “SAFB-like transcription modulator I28R, Q9NWH9” here?
A: -0.018 ± 0.057

Q: For “BAG family molecular chaperone regulator 3 N43L, O95817”, which abundance fitness is on record?
A: -0.629 ± 0.12

Q: Which abundance fitness does the source give for “BAG family molecular chaperone regulator 3 Q11L, O95817” here?
A: -0.227 ± 0.32

Q: Which abundance fitness does the source give for “BAG family molecular chaperone regulator 3 D41Q, O95817” here?
A: -0.364 ± 0.32

Q: For “BAG family molecular chaperone regulator 3 S14V, O95817”, which abundance fitness is on record?
A: -0.219 ± 0.14

Q: For “BAG family molecular chaperone regulator 3 R53A, O95817”, which abundance fitness is on record?
A: -0.422 ± 0.14

Q: Which abundance fitness does the source give for “SAFB-like transcription modulator E67V, Q9NWH9” here?
A: -0.042 ± 0.037

Q: Which abundance fitness does the source give for “BAG family molecular chaperone regulator 3 P55S, O95817” here?
A: 0.153 ± 0.17

Q: Which abundance fitness does the source give for “SAFB-like transcription modulator K31F, Q9NWH9” here?
A: -0.288 ± 0.037

Q: Which abundance fitness does the source give for “BAG family molecular chaperone regulator 3 G58P, O95817” here?
A: -0.032 ± 0.29

Q: With “BAG family molecular chaperone regulator 3 V54Q, O95817” as the substance, how does the abundance fitness read?
A: -0.084 ± 0.23

Q: With “BAG family molecular chaperone regulator 3 G17M, O95817” as the substance, how does the abundance fitness read?
A: 0.25 ± 0.21

Q: For “BAG family molecular chaperone regulator 3 S44T, O95817”, which abundance fitness is on record?
A: 0.209 ± 0.11

Q: For “SAFB-like transcription modulator P63Y, Q9NWH9”, which abundance fitness is on record?
A: -0.214 ± 0.051

Q: For “SAFB-like transcription modulator V44C, Q9NWH9”, which abundance fitness is on record?
A: 0.036 ± 0.076

Q: With “SAFB-like transcription modulator S32D, Q9NWH9” as the substance, how does the abundance fitness read?
A: 0.156 ± 0.073

Q: With “SAFB-like transcription modulator T46A, Q9NWH9” as the substance, how does the abundance fitness read?
A: -0.062 ± 0.068

Q: With “BAG family molecular chaperone regulator 3 D20W, O95817” as the substance, how does the abundance fitness read?
A: -0.42 ± 0.15

Q: For “BAG family molecular chaperone regulator 3 D41G, O95817”, which abundance fitness is on record?
A: -0.621 ± 0.14

Q: With “BAG family molecular chaperone regulator 3 F38M, O95817” as the substance, how does the abundance fitness read?
A: 0.197 ± 0.14

Q: With “BAG family molecular chaperone regulator 3 E57K, O95817” as the substance, how does the abundance fitness read?
A: -0.11 ± 0.24

Q: With “BAG family molecular chaperone regulator 3 V54W, O95817” as the substance, how does the abundance fitness read?
A: -0.961 ± 0.37

Q: For “SAFB-like transcription modulator K45W, Q9NWH9”, which abundance fitness is on record?
A: -0.293 ± 0.054

Q: For “BAG family molecular chaperone regulator 3 F38D, O95817”, which abundance fitness is on record?
A: -0.57 ± 0.14

Q: For “BAG family molecular chaperone regulator 3 I30C, O95817”, which abundance fitness is on record?
A: 0.028 ± 0.16

Q: Which abundance fitness does the source give for “SAFB-like transcription modulator K20M, Q9NWH9” here?
A: -0.035 ± 0.075

Q: For “SAFB-like transcription modulator L34C, Q9NWH9”, which abundance fitness is on record?
A: -0.496 ± 0.1

Q: Which abundance fitness does the source give for “BAG family molecular chaperone regulator 3 I28V, O95817” here?
A: 0.068 ± 0.1

Q: For “SAFB-like transcription modulator E67Y, Q9NWH9”, which abundance fitness is on record?
A: -0.019 ± 0.11

Q: Which abundance fitness does the source give for “BAG family molecular chaperone regulator 3 D51T, O95817” here?
A: 0.29 ± 0.25

Q: For “SAFB-like transcription modulator I56L, Q9NWH9”, which abundance fitness is on record?
A: 0.002 ± 0.068

Q: For “SAFB-like transcription modulator D62W, Q9NWH9”, which abundance fitness is on record?
A: -0.66 ± 0.045

Q: For “SAFB-like transcription modulator E58H, Q9NWH9”, which abundance fitness is on record?
A: 0.147 ± 0.084

Q: For “BAG family molecular chaperone regulator 3 T47D, O95817”, which abundance fitness is on record?
A: -0.679 ± 0.42

Q: Which abundance fitness does the source give for “SAFB-like transcription modulator D64R, Q9NWH9” here?
A: -0.23 ± 0.032

Q: Which abundance fitness does the source give for “BAG family molecular chaperone regulator 3 T47R, O95817” here?
A: -0.728 ± 0.13

Q: With “SAFB-like transcription modulator R26T, Q9NWH9” as the substance, how does the abundance fitness read?
A: -0.302 ± 0.12

Q: For “SAFB-like transcription modulator D29S, Q9NWH9”, which abundance fitness is on record?
A: -0.755 ± 0.19

Q: Which abundance fitness does the source give for “SAFB-like transcription modulator V27R, Q9NWH9” here?
A: -0.241 ± 0.07

Q: Which abundance fitness does the source give for “SAFB-like transcription modulator T42L, Q9NWH9” here?
A: -0.345 ± 0.069

Q: Which abundance fitness does the source give for “SAFB-like transcription modulator V27D, Q9NWH9” here?
A: -0.127 ± 0.12

Q: With “SAFB-like transcription modulator V44Q, Q9NWH9” as the substance, how does the abundance fitness read?
A: -0.134 ± 0.078

Q: Which abundance fitness does the source give for “SAFB-like transcription modulator I28T, Q9NWH9” here?
A: -0.129 ± 0.12

Q: For “BAG family molecular chaperone regulator 3 H42G, O95817”, which abundance fitness is on record?
A: -0.65 ± 0.09

Q: For “BAG family molecular chaperone regulator 3 Q33M, O95817”, which abundance fitness is on record?
A: -0.29 ± 0.3

Q: For “BAG family molecular chaperone regulator 3 A13G, O95817”, which abundance fitness is on record?
A: -0.412 ± 0.094

Q: Which abundance fitness does the source give for “SAFB-like transcription modulator Q54A, Q9NWH9” here?
A: -0.167 ± 0.083

Q: Which abundance fitness does the source give for “SAFB-like transcription modulator G61S, Q9NWH9” here?
A: -0.23 ± 0.049

Q: Which abundance fitness does the source give for “SAFB-like transcription modulator G61E, Q9NWH9” here?
A: -0.303 ± 0.064

Q: For “BAG family molecular chaperone regulator 3 W49S, O95817”, which abundance fitness is on record?
A: -0.436 ± 0.12

Q: For “SAFB-like transcription modulator L25I, Q9NWH9”, which abundance fitness is on record?
A: -0.467 ± 0.11

Q: For “BAG family molecular chaperone regulator 3 H42Y, O95817”, which abundance fitness is on record?
A: -0.55 ± 0.088

Q: Which abundance fitness does the source give for “BAG family molecular chaperone regulator 3 S14G, O95817” here?
A: -0.641 ± 0.1

Q: Which abundance fitness does the source give for “SAFB-like transcription modulator T23W, Q9NWH9” here?
A: -0.175 ± 0.047

Q: For “BAG family molecular chaperone regulator 3 L22S, O95817”, which abundance fitness is on record?
A: -0.574 ± 0.11

Q: With “SAFB-like transcription modulator K31A, Q9NWH9” as the substance, how does the abundance fitness read?
A: -0.352 ± 0.049

Q: For “BAG family molecular chaperone regulator 3 N50E, O95817”, which abundance fitness is on record?
A: 0.063 ± 0.096

Q: Which abundance fitness does the source give for “SAFB-like transcription modulator E59Q, Q9NWH9” here?
A: -0.336 ± 0.078

Q: With “SAFB-like transcription modulator I28G, Q9NWH9” as the substance, how does the abundance fitness read?
A: -0.106 ± 0.064

Q: With “SAFB-like transcription modulator L25F, Q9NWH9” as the substance, how does the abundance fitness read?
A: -0.312 ± 0.061

Q: With “BAG family molecular chaperone regulator 3 I30K, O95817” as the substance, how does the abundance fitness read?
A: -0.087 ± 0.2

Q: Which abundance fitness does the source give for “SAFB-like transcription modulator E33G, Q9NWH9” here?
A: -0.974 ± 0.086

Q: With “SAFB-like transcription modulator V47M, Q9NWH9” as the substance, how does the abundance fitness read?
A: 0.013 ± 0.061

Q: Which abundance fitness does the source give for “SAFB-like transcription modulator K45E, Q9NWH9” here?
A: -0.096 ± 0.038

Q: For “SAFB-like transcription modulator V44H, Q9NWH9”, which abundance fitness is on record?
A: 0.126 ± 0.089

Q: With “BAG family molecular chaperone regulator 3 S56T, O95817” as the substance, how does the abundance fitness read?
A: 0.208 ± 0.16

Q: Which abundance fitness does the source give for “BAG family molecular chaperone regulator 3 S56A, O95817” here?
A: -0.146 ± 0.12

Q: With “SAFB-like transcription modulator K53F, Q9NWH9” as the substance, how does the abundance fitness read?
A: -0.291 ± 0.06

Q: Which abundance fitness does the source give for “SAFB-like transcription modulator I22K, Q9NWH9” here?
A: -0.576 ± 0.072

Q: For “SAFB-like transcription modulator E33L, Q9NWH9”, which abundance fitness is on record?
A: -0.123 ± 0.061

Source: the Human Domainome abundance scans (Beltran et al. 2025)
